From patent US20070099822A1, “Regulation of tissue mineralization and phosphate metabolism by asarm peptides” (priority 2003, published 2007) come the findings set out here.

Entries after “also recorded” stand apart in the source; their conditions may differ.

This test concerns the target T1, MEPE-PHEX interaction (Homo sapiens, UniProt P78562).
T1 construct: to generate a soluble, secreted form of PHEX; made in house; host or cells: secPHEX: mammalian cells (gift, University of Montreal); MEPE: S. frugiperda insect cells
T1 sequence (P78562 46-749 limits assumed): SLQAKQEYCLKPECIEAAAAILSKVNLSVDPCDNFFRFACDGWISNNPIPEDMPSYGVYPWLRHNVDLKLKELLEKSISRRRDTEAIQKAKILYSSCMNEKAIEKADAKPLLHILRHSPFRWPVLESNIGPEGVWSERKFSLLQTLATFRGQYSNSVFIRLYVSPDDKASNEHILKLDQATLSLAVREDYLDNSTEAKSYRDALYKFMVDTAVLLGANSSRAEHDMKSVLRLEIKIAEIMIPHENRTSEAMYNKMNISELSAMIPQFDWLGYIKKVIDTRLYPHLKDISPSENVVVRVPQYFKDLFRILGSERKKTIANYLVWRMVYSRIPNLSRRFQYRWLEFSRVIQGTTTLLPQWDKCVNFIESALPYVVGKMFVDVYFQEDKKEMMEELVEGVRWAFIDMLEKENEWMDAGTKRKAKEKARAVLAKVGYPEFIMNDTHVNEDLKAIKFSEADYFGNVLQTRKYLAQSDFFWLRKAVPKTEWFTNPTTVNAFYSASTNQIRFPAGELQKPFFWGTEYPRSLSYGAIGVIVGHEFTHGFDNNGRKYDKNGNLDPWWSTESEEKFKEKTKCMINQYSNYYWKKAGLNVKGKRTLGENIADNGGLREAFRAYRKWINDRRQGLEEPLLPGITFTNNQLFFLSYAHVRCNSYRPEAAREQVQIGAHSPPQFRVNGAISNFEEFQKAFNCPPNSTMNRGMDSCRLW
In words: Surface plasmon resonance, peptide solution competition of secPHEX-MEPE binding. The following applies: peptide pre-mixed with secPHEX, MEPE-RGD up to 85 μM. From the text: Surface Plasmon Resonance: Synthetic peptides & competitive PHEX-MEPE binding studies. For these experiments CM-5 chips containing flow-cells immobilized with MEPE, PHEX and IgG ligands at 6000 RU were used. Just prior to SPR injection, stock solution of specific-peptide (as defined for each experiment; see Table 1), and dissolved in analyte buffer (HBS-P—Zn) […] The following equation was used to compute KDapp values: RU=Bmax/inhib×(peptide(μM))/KDapp+(peptide(μM)). The Bmax/inh value represents the maximal percentage inhibition change in RU (i.e., PHEX-MEPE binding) relative to the “non-peptide” control (0% inhibition of binding), using a constant analyte flow-solution of secPHEX of 250 nM against immobilized MEPE ligand at 6000 RU. […] The control MEPE-RGD peptide had no effect on MEPE-PHEX interactions.
(In general: In SPR one partner is held on a chip, and binding of the other changes the refractive index at the surface.)

In the case of “GSGYTDLQERGDNDISPFSGDGQPF (Homo sapien) [MEPE-RGD, 15, negative control, reference compound]”, the “inhibition of MEPE-PHEX interaction” value is reported as “did not competitively inhibit; also recorded: no effect”. Moreover, under “listed as MEPE-RGD-peptide”, the “inhibition of MEPE-PHEX interaction” value is on record as “no inhibition”.
